Test results as given in patent US20210130473A1, “TGFßR1 INHIBITOR-ASGR ANTIBODY CONJUGATES AND USES THEREOF” (Silverback Therapeutics, Inc., priority 2019, published 2021).
Changes are numbered by the printed parent chain. Numbers in names are those of the source.

B1: hzL4L-7: "humanized anti-ASGR1 antibodies hzL4L-7 and hzL4L-14 as compared to parent mouse anti-ASGR1 antibody L4L" (antibody, V domains shown)
VH: QVQLQESGPGLVKPSQTLSLTCTVSGYSISSDYAWNWIRQHPGKGLEWIGYISYSGSTRYNPSLKSRVTITRDTSKNQFSLKLSSVTAADTAVYYCARRYRYDEGYGMDYWGQGTTVTVSS
VL: DIQMTQSPSSLSASVGDRVTITCRASENIYSNLAWYQQKPGKAPKLLIYAATNLADGVPSRFSGSGSGTDFTLTISSLQPEDFATYYCQHFWGTPPWTFGGGTKVEIK
B2: hzH8K-1: "humanized anti-ASGR1 antibodies hzH8K-1 and hzH8K-10 as compared to parent mouse anti-ASGR1 antibody H8K" (antibody, V domains shown)
VH: QVQLQESGPGLVKPSQTLSLTCTVSGGSISSDYAWNWIRQHPGKGLEWIGYRSYRGSTSYNPSLKSRVTISVDTSKNQFSLKLSSVTAADTAVYYCARRGYYGSSSHWYFDVWGQGTTVTVSS
VL: DIQMTQSPSSLSASVGDRVTITCRASENIYSYLAWYQQKPGKAPKLLIYNAKTLAEGVPSRFSGSGSGTDFTLTISSLQPEDFATYYCQHHYGTPLTFGGGTKVEIK
B3: hzL4L-11: "Humanized sequences hzL4L-10 through hzL4L-14 were further modified by adding additional mutations in the light chain CDR2/FR3 junction, namely D56S ..., D56E ... or G57A" (antibody, V domains shown)
VH: B1 VH with S30T, V68I, T69S
VL: B1 VL with D56E
B4: hzL4L-6: humanized L4L clone: "reduction in percent purity ... seen with the chimeric and hzL4L-1, -2 and -6" (antibody, V domains shown)
VH: B1 VH with S30T
VL: B1 VL
B5: hzL4L-8 (antibody, V domains shown)
VH: B1 VH with S30T, V68I, T69S, T71S, R72V
VL: B1 VL
B6: hzL4L-3 (antibody, V domains shown)
VH: B1 VH with S30T, V68I, T69S
VL: B1 VL
B7: hzL4L-4 (antibody, V domains shown)
VH: B1 VH with S30T, T71S, R72V
VL: B1 VL
B8: hzL4L-9 (antibody, V domains shown)
VH: B1 VH with V68I, T69S, T71S, R72V
VL: B1 VL
B9: hzL4L-2: humanized L4L clone: "reduction in percent purity ... seen with the chimeric and hzL4L-1, -2 and -6" (antibody, V domains shown)
VH: B1 VH with Y27G, S30T, V68I, T69S
VL: B1 VL
B10: hzL4L-5 (antibody, V domains shown)
VH: B1 VH with V68I, T69S
VL: B1 VL
B11: hzL4L-10: "Humanized sequences hzL4L-10 through hzL4L-14 were further modified by adding additional mutations in the light chain CDR2/FR3 junction, namely D56S ..., D56E ... or G57A" (antibody, V domains shown)
VH: B1 VH with S30T, V68I, T69S
VL: B1 VL with D56S

What follows are molecules tested against T1, rat ASGR1 (Rattus norvegicus, UniProt P02706) (assay: Binding to cell surface expressed rat ASGR1 (transiently transfected CHO-S cells, GUAVA)). Details: not given.
T1 construct: expressed in transfected cells; host or cells: CHO-S (transient)
T1 sequence (P02706 1-284): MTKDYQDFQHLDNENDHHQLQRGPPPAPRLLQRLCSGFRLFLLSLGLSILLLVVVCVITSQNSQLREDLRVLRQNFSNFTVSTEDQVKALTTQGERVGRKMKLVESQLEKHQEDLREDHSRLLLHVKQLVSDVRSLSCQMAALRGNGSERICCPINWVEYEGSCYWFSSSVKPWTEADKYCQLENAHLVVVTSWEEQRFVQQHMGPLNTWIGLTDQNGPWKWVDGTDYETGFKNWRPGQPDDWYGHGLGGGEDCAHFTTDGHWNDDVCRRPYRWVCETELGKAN
Protocol: Anti-human ASGR1 antibodies of this disclosure were examined for cross-reactivity with Cynomolgus macaque and rat ASGR1. Briefly, sequence encoding Cynomolgus macaque or rat ASGR1 was transiently transfected into CHO-S cells. Transfected cells were before performing cell binding assay. A total of about 1.5×10^4 transfected cells/well were added to 96-well V-bottom assay plate, incubated at 37° C., 5% CO2 for 48-72 hours, and then washed with culture medium before adding 100 μl of each ASGR1 antibody at different concentrations starting from 100 nM and 3-fold dilutions to a total of eight wells. The cells with antibody were incubated for 40 minutes at 4° C., then washed three times with 200 μl of fresh culture medium. To each well was added 50 μl PE conjugated goat anti-human Fc (SouthernBiotech) at 1:200 dilution in culture medium and then incubated at 4° C. for 20 minutes. After washing the plate once, the treated cells were resuspended in 200 μl culture medium and then the stained cells were analyzed on GUAVA® using Incyte software.
Anti-human ASGR1 antibodies of this disclosure were examined for cross-reactivity with Cynomolgus macaque and rat ASGR1. […] After washing the plate once, the treated cells were resuspended in 200 μl culture medium and then the stained cells were analyzed on GUAVA® using Incyte software.

Row | Molecule | binding to rat ASGR1
1 | B1 | not rat cross-reactive
2 | B2 | not rat cross-reactive

The molecules below were run against T2, human ASGR1 extracellular domain (ECD) (Homo sapiens, UniProt P07306) (assay: Effect of calcium on anti-ASGR1 binding and dissociation (OCTET Red 96, Penta-His biosensors)). Details: binding to human ASGR1 ECD with or without calcium, OCTET.
T2 sequence (P07306 62-291 limits assumed): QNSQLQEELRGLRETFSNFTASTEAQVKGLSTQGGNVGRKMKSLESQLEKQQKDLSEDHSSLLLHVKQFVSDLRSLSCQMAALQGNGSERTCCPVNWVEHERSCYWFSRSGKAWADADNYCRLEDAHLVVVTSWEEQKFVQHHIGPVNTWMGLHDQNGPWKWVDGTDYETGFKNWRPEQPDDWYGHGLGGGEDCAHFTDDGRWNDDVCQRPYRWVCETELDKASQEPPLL
Design: key to Ca2+ sensitivity during association / Ca2+ sensitivity during dissociation / Ca2+ Sensitivity: N = No; Y = Yes
Protocol: The ability of anti-human ASGR1 antibodies of this disclosure to bind to human ASGR1 in the presence or absence of calcium in binding buffer was examined. Briefly, ASGR1 antibodies were bound to immobilized human ASGR1 extracellular domain (ECD) at saturating levels and subsequently dissociated under three different conditions as follows: (a) binding and dissociation with buffer containing calcium (PBS+1% BSA+0.2% Tween20+0.9 mM CaCl2), pH 7.4); (b) binding with buffer containing calcium and dissociation with buffer lacking calcium; and (c) binding and dissociation with buffer lacking calcium. Analysis of ASGR1 antibody binding to human ASGR1 ECD was performed using the OCTET® Red 96 instrument and analyzed using the OCTET®Data Analysis Software 9.0 (ForteBio). His-tagged human ASGR1 ECD was immobilized to OCTET® Penta-His biosensors and ASGR1 antibodies were subjected to avidity binding under the conditions described above. Association with the ASGR1 ECD was measured by the rate of and increase in magnitude of signal response at a given antibody concentration. Dissociation from the ASGR1 ECD was measured the rate of loss in signal upon removal of the antibody and further incubation with or without Ca^2+. […] Also tested were humanized antibodies hzH8K-1 and hzL4L-7.
Further analysis of the antibodies of this disclosure was to determine whether the presence of calcium was needed for binding (i.e., during association) of the antibodies to human ASGR1 ECD. […]

Row | Molecule | Ca2+ sensitivity during association
3 | B1 | N
4 | B2 | N

Same assay, conditions: dissociation from human ASGR1 ECD with or without calcium, OCTET

Row | Molecule | Ca2+ sensitivity during dissociation
5 | B1 | N
6 | B2 | N

Same assay, conditions: overall summary column

Row | Molecule | Ca2+ Sensitivity
7 | B1 | N
8 | B2 | N

Same assay, conditions: sensitive: difference in binding signal after dissociation with vs without calcium >±10%

Row | Molecule | calcium sensitivity of binding to human ASGR1 ECD
9 | B1 | lacking sensitivity to calcium

The molecules below were run against T3, HepG2 cells (which express ASGR1) (Homo sapiens, UniProt P07306) (assay: Guava HepG2 cell binding screen of anti-ASGR1 mAbs). Details: humanized L4L clones; Good / Poor.
T3 construct: endogenous in cells; host or cells: HepG2
T3 sequence (P07306 1-291): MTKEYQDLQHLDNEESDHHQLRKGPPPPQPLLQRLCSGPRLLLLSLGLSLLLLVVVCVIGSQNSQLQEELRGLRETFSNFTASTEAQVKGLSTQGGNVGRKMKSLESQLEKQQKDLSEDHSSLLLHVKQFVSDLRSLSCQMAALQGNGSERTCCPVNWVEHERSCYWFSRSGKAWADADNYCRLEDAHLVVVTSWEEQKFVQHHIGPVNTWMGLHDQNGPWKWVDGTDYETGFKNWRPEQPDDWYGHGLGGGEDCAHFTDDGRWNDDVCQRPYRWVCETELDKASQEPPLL
Protocol: Additionally, hybridomas producing monoclonal antibodies (mAbs) specific for human ASGR1 were prepared from Balb/C mice immunized with ASGR1-AviHis at a service provider using their propriety protocol. Antibody heavy and light chain sequences were obtained, amplified, and cloned. Clone supernatants containing the expressed mAbs were screened for binding to a human ASGR1-IgG1Fc fusion protein, and those with a positive signal as measured by enzyme linked immunosorbent assay (ELISA) were screened for cell binding on HepG2 cells (which express ASGR1). […] The isolated mAbs were further analyzed for the additional characteristics including, for example, titer, low aggregate content following protein A purification, high titer, lack of cross-blocking of ligand GalNac, calcium sensitivity, and cross-reactivity with rat ASGR1 protein.

Row | Molecule | Guava HepG2 Screen
10 | B1 | Good
11 | B3 | Good
12 | B4 | Good
13 | B5 | Poor
14 | B6 | Good
15 | B7 | Poor
16 | B8 | Poor
17 | B9 | Good
18 | B10 | Good
19 | B11 | Good
